The values that follow come from patent US20140120555A1 (PIERRE FABRE MEDICAMENT, published 2014).

Broadly, the Kd is the constant that tells how readily two partners part at equilibrium. A word on the koff: it is the first-order rate constant of dissociation. Broadly, the kon is a measure of how fast the partners come together.

In assay [1] the target is T1, Recombinant mouse FcγRIII [CD16], Ala31-Thr215 with C-terminal 10-His tag (mouse, UniProt P08508 31-215).
T1 construct: Soluble form bought from R&D Systems; also called m-FcγRIII
T1 sequence: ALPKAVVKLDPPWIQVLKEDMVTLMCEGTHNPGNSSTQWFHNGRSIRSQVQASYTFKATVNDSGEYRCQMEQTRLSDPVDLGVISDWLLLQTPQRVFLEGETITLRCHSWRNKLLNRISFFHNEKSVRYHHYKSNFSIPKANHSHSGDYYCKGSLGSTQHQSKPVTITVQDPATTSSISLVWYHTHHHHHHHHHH
Briefly: SPR (Biacore X): m-FcγRIII injected over c515H7 Mab immobilized on a CM4 sensorchip; heterogeneous ligand model, major component (99%). The method, then: (§1) 2017 RU of c515H7 Mab were immobilized using the amine coupling kit chemistry on the second flowcell (FC2) of a CM4 sensorchip. The first flowcell (FC1) activated by NHS and EDC mixture and des-activated by ethanolamine served as the reference surface to check and subtract the non specific interaction between the analyte (Fc gamma receptors) and the sensorchip matrix.
(§2) The kinetic experiments were carried out at 25° Celsius at a flow rate of 30 μl/min. The HBS-EP buffer was used either as the running buffer or for the preparation of analyte solutions. The analyte solutions were injected during 90 seconds (association phase) with a 90 seconds delay (dissociation phase). An injection of running buffer as analyte was used as a double reference. All the sensorgrams were corrected by this double reference sensorgram.
(§3) After each injection of the analyte, the sensorchip was regenerated by injection of 20 mM NaOH, 75 mM NaCl solution.

The target of assay [2] is T2, Recombinant mouse FcγRI [CD64], Gln25-Pro297 with C-terminal 6-His tag (mouse, UniProt P26151 25-297).
T2 construct: range 25-297; Soluble form bought from R&D Systems; also called m-FcγRI
T2 sequence: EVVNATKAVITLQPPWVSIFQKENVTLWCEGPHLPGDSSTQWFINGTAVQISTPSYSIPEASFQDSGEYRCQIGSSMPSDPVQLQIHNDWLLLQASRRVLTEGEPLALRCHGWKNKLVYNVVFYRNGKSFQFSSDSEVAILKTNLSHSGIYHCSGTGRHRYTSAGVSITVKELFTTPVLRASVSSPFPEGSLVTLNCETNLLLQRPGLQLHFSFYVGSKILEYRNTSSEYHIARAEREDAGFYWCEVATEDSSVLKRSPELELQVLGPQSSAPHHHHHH
Briefly: SPR (Biacore X): m-FcγRI injected over c515H7 Mab immobilized on a CM4 sensorchip; Langmuir model. The protocol:
as §1, §2, §3

Assay [3] concerns the target T1, Recombinant mouse FcγRIII [CD16], …. Briefly: SPR (Biacore X), Mab on CM4 chip, m-FcγRIII as analyte, Langmuïr model. The protocol:
as §1, §2, §3
A general note: SPR reads the build-up and loss of mass on a sensor chip optically.

For assay [4], the target named is T2, Recombinant mouse FcγRI [CD64], …. Briefly: SPR (Biacore X), Mab on CM4 chip, m-FcγRI as analyte, heterogeneous ligand model, minor component; minor component (19%), lower end. The method, then:
as §1, §2
According to this model, the c515H7 Mab Fc domain may be regarded as a mixture of two components.

The target of assay [5] is T3, Recombinant human FcγRI [CD64], Gln16-Pro288 with C-terminal 6-His tag (human, UniProt P12314 16-288).
T3 construct: range 16-288; Soluble form bought from R&D Systems; also called h-FcγRI
Briefly: SPR (Biacore X): h-FcγRI injected over c515H7 Mab immobilized on a CM4 sensorchip; heterogeneous ligand model, minor component (0%). The method, then: as §1, §2, §3

Assay [6] addresses T1, Recombinant mouse FcγRIII [CD16], …. Briefly: SPR (Biacore X): m-FcγRIII injected over hz515H7VH1D76NVL2 Mab immobilized on a CM4 sensorchip; heterogeneous ligand model, minor component (34%).
Assay [7] concerns the target T2, Recombinant mouse FcγRI [CD64], …. Briefly: SPR (Biacore X), heterogeneous ligand model, m-FcγRI as analyte. The method, then:
(§4) 1964 RU of hz515H7VH1D76NVL2 Mab were immobilized using the amine coupling kit chemistry on the second flowcell (FC2) of a CM4 sensorchip. The first flowcell (FC1) activated by NHS and EDC mixture and des-activated by ethanolamine served as the reference surface to check and subtract the non specific interaction between the analyte (Fc gamma receptors) and the sensorchip matrix.
as §2
(§5) According to this model, the hz515H7VH1D76NVL2 Mab Fc domain may be regarded as a mixture of two components.

Assay [8] shares this target. Briefly: SPR (Biacore X): m-FcγRI injected over hz515H7VH1D76NVL2 Mab immobilized on a CM4 sensorchip; Langmuir model. The method, then:
as §4, §2
(§6) After each injection of the analyte, the sensorchip was regenerated by injection of either 20 mM NaOH solution after h-FcγRI and m-FcγRIII or 10 mM NaOH after h-FcγRIIIA and m-FcγRI.

For assay [9] the target is unchanged. Briefly: SPR (Biacore X): m-FcγRI injected over hz515H7VH1D76NVL2 Mab immobilized on a CM4 sensorchip; heterogeneous ligand model, minor component (18%). The method, then: as §4, §2, §6
For assay [10] the target is unchanged. Briefly: SPR (Biacore X), Mab on CM4 chip, m-FcγRI as analyte, heterogeneous ligand model, major component. The protocol: as §4, §2, §5

T3 sequence (P12314 other isoform, or with tags, fused parts or gaps limits assumed): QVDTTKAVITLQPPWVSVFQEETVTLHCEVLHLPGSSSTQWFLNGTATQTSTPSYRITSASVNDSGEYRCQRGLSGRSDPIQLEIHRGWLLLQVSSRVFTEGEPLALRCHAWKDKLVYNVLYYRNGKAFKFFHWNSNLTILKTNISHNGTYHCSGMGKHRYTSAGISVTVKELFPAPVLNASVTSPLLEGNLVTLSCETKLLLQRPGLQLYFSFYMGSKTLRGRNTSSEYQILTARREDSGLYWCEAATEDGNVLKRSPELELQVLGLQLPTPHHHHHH

B1: chimeric antibody c515H7 (antibody, human IgG1, kappa)
heavy: not shown
light: DIVMSQSPSSLAVSAGEKVTMSCKSSQSLFNSRTRKNYLAWYQQKPGQSPKLLIYWASARDSGVPARFTGSGSETYFTLTISRVQAEDLAVYYCMQSFNLRTFGGGTKLEIKRTVAAPSVFIFPPSDEQLKSGTASVVCLLNNFYPREAKVQWKVDNALQSGNSQESVTEQDSKDSTYSLSSTLTLSKADYEKHKVYACEVTHQGLSSPVTKSFNRGEC
notes: Human IgG1/kappa constant domains; also called c515H7 Mab; chimeric 515H7
Take B1: the Kd was 20.9 nM in assay [1]; 106 nM in [2]; around 20 nM in assay [3]; 32 to 37 nM in assay [4]; 0.06 nM in assay [5]. Besides, the koff in assay [1] came out at 0.00446 s⁻¹; in [2] it was 0.0661 s⁻¹; in [5] it was 7.3e-05 s⁻¹. Besides, the kon turned out to be 213000 M⁻¹ s⁻¹ in [1], 622000 M⁻¹ s⁻¹ in assay [2] and 1.14e+06 M⁻¹ s⁻¹ in assay [5].

B2: humanized antibody Hz515H7 VH1 D76N VL2 (antibody, human IgG1, kappa)
heavy: not shown
light: DIVMTQSPSSLAVSLGERATMSCKSSQSLFNSRTRKNYLAWYQQKPGQSPKLLIYWASARDSGVPARFTGSGSETYFTLTISRVQAEDLAVYYCMQSFNLRTFGQGTKVEIKRTVAAPSVFIFPPSDEQLKSGTASVVCLLNNFYPREAKVQWKVDNALQSGNSQESVTEQDSKDSTYSLSSTLTLSKADYEKHKVYACEVTHQGLSSPVTKSFNRGEC
notes: IgG1/kappa; also called hz515H7VL2; hz515H7-1
As for B2, in [6], the Kd turned out to be 61.4 nM, the koff stood at 0.0299 s⁻¹ and the on-rate constant (kon) was found to be 487000 M⁻¹ s⁻¹. Moreover, in assay [7], the “fold association rate, major versus minor component” value was found to be 5.7 fold and the “fold dissociation rate, major versus minor component” value was determined as 4.8 fold. Moreover, in [8], the dissociation constant Kd worked out at 77 nM, the koff came to 0.0648 s⁻¹ and the kon was 842000 M⁻¹ s⁻¹. In addition, in [9], the Kd amounted to 90.9 nM, the koff was 0.022 s⁻¹ and the kon was found to be 242000 M⁻¹ s⁻¹. Also, in assay [10], the Kd lay within 75 to 80 nM.
